Source: patent US7030099B2, “Tumor specific promoters of the midkine gene that allow for selective expression in P53-inactivated cells” (Research Corporation Technologies, Inc., priority 2000, dated 2006)

Key:
[1] = test system: lung cancer cells QG-56, neuroblastoma NGP; assay: CAT assay of promoter transcription activity, tumor cells; type: cell-based, human; details: tumor cells versus normal cells
Experimental: Using the above plasmid, or a plasmid pCAT-Control (manufactured by Promega) having the promoter of SV40 virus, and a plasmid pCAT-Basic (manufactured by Promega) containing no promoters, gene introduction was performed on the lung cancer cells QG-56, the neuroblastoma NGP, and the normal human fibroblasts MRC-5 that were being cultured in a DMEM (Sigma) supplemented with 10% bovine fetal serum. After 10 μg each of these plasmids and lipofectin (Life Technologies) were mixed, it was allowed to stand at room temperature for 30 minutes to form a complex. Then the complex, after removing the bovine fetal serum therefrom, was contacted with the cells. Eight hours later culture medium supplemented with bovine fetal serum was added, cultured for 40 hours, and then the gene-introduced cells were disrupted by ultrasonication. After centrifugation, the supernatants were used to examine their transcription activities with the known CAT assay method (Gorman, C M et al., Mol. Cell. Biol., 2:1044–1051, 1982) using [^14C]-chloramphenicol and acetyl CoA. At this time, in order to normalize the efficiency of gene introduction, 1 μg of the β-galactosidase gene (pCH110, manufactured by Amersham) was introduced at the same time, and the β-galactosidase activity (Heromel, P. et al., Cell, 39:653–662, 1984) was determined.

[2] = test system: immortalized MRC-5 cells (p53 functions inactivated); assay: In vitro sensitivity to GCV of promoter-TK gene-introduced cells (Cell Counting Kit-8 survival); type: cell-based, human; details: HSV-TK gene powered by the promoter, GCV seven days, FIG. 2B
Experimental: (§1) (1) In order to examine cytotoxic effects by the transcription activity of the promoter obtained from the midkine gene, herpes simplex virus thymidine kinase (HSV-TK), a suicide gene, was ligated downstream of MK0.6 and MK2.3, and the plasmid was introduced in cells, and a prodrug gancyclovir (GCV) was added into the culture medium of the gene-introduced cells. The method of determining the cytotoxic effect by this system is as described in Moolten, FL. Cancer Gene Ther., 1:279–287, 1994.
(§2) First, the CMV promoter of pcDNA3 (manufactured by Invitrogen) was removed using NruI and HindIII sites, to which MK2.3 or Mk0.6 was inserted, and then using the EcoRV site, the HSV-TK gene excised from pMK (Brinster, R L et al., Cell, 27:223–231, 1981) with BglI and EcoRI was inserted. Each of the plasmids thus obtained (MK2.3-TK and MK0.6-TK) was introduced, as described above, using lipofectin into MRC-5 which are normal cells, or MRC-5 cells that had been immortalized by inactivating the functions of the p53 tumor suppressor gene. In order to utilize the expression of the Neo gene contained in pcDNA3 as drug resistant markers, the cells were cultured with 400 μg/ml of G418 (manufactured by Life Technologies) for ten days to establish the cells that expressed MK2.3-TK and MK0.6-TK, respectively. These cells were then plated at 500 cells/well of 96-well culture plates, and were cultured in the presence of various concentrations of GCV (manufactured by F. Hoffman-La Roche) for seven days. The survival rate of the cells was examined using the Cell Counting Kit-8 (manufactured by Dojin Kagaku). The survival of the cells at a GCV concentration of 0 μg/ml was set as 100%, and the survival for each experiment group is shown in terms of percentage in FIG. 2A and FIG. 2B.

normal MRC-5 cells = assay: as above; type: cell-based, human; details: HSV-TK gene controlled by the promoter, GCV seven days, FIG. 2A
Experimental: as §1, §2

[3] = test system: human malignant melanoma A875, human lung cancer cells QG-56; assay: Luciferase assay of c-erbB-2 promoter activity, non-breast tumor cells; type: cell-based; details: human malignant melanoma cells and human lung cancer cells; FIG. 7C
Experimental: (§3) With the transcription initiation site of the c-erbB-2 gene as +1, DNA that corresponded to a genomic region (p533) from −435 to +38 and that had the sequence set forth in SEQ ID NO: 7 was amplified by the PCR method, and then the DNA fragment was integrated into the pGEM-TEasy (manufactured by Promega), and the sequences of the PCR product was determined. Thus, after inserting this PCR product into the SmaI site of pGL2-Basic (manufactured by Promega), it was cleaved with BlnI/SmaI, PstI/SmaI, and BssHII/SmaI using the restriction enzyme sites present on the c-erbB-2 genomic gene to construct plasmids in which the genomic regions of c-erbB-2, p344 (−306/+38) (DNA having the base sequence set forth in SEQ ID NO: 8), p251 (−213/+38) (DNA having the base sequence set forth in SEQ ID NO: 9) and p124 (−86/+38) (DNA having the base sequence set forth in SEQ ID NO: 10) are localized upstream of the Firefly luciferase gene, respectively. Using the plasmid pGL2-Control (manufactured by Promega) having the promoter of SV40 virus and the plasmid pGL2-Basic (manufactured by Promega) containing no promoters, gene introduction was performed in human breast cancer cells OCUBM, MCF7, BT549, normal human fibroblasts HEF, MRC-5, human malignant melanoma A875, and human lung cancer cells QG-56, all of which were cultured in DMEM (Sigma) supplemented with 10% bovine fetal serum. Firstly, after 10 μg each of these plasmids and lipofectin (Life Technologies) were mixed, it was allowed to stand at room temperature for 30 minutes to form a complex of DNA and lipid. Then the complex, after removing the bovine fetal serum therefrom, was contacted with the cells. Eight hours later culture medium supplemented with bovine fetal serum was added. After 48 hours-culture, the cells were disrupted using the Dual-Luciferase Reporter Assay System (manufactured by Promega), and the Firefly luciferase activity therein was determined using the reagents in the same kit. In order to normalize the efficiency of gene introduction, 1 μg of pRL-TK plasmid (manufactured by Promega) was included in each gene-introduced group, and the Renilla luciferase activity by the TK promoter was determined, based on which the Firefly luciferase activity was corrected.

[4] = test system: normal human fibroblasts HEF, MRC-5; assay: Luciferase assay of c-erbB-2 promoter activity, normal fibroblasts; type: cell-based; details: FIG. 7B
Experimental: as §3

[5] = test system: human breast cancer cells OCUBM, MCF7, BT549; assay: Luciferase assay of c-erbB-2 promoter activity, breast cancer cells; type: cell-based; details: FIG. 7A
Experimental: as §3, with “Then the complex, after removing the bovine fetal serum therefrom, was contacted with the cells. Eight hours later culture medium supplemented with bovine fetal serum was added.” left out

Molecule	tumor-specificity of promoter activity [1]	transcription activity compared with SV40 promoter [3]	promoter activity compared with SV40 promoter [4]	also measured
MK2.3: 2.3 kb of the human midkine genomic gene, base sequence SEQ ID NO: 3; previously reported promoter [reference compound]	weak			sensitivity to GCV compared to that of the parent strain [2]: 1000 fold; sensitivity to GCV compared to that of the parent strain (normal MRC-5 cells): 500 fold
p344: c-erbB-2 genomic region −306/+38, SEQ ID NO: 8 (nucleic acid, listed as Homo sapiens) DNA: CTAGGGAATTTATCCCGGACTCCGGGGGAGGGGGCAGAGTCACCAGCCTCTGCATTTAGGGATTCTCCGAGGAAAAGTGTGAGAACGGCTGCAGGCAACCCAGGCGTCCCGGCGCTAGGAGGGACGACCCAGGCCTGCGCGAAGAGAGGGAGAAAGTGAAGCTGGGAGTTGCCGACTCCCAGACTTCGTTGGAATGCAGTTGGAGGGGGCGAGCTGGGAGCGCGCTTGCTCCCAATCACAGGAGAAGGAGGAGGTGGAGGAGGAGGGCTGCTTGAGGAAGTATAAGAATGAAGTTGTGAAGCTGAGATTCCCCTCCATTGGGACCGGAGAAACCAGGGGAGCCC		lower than the SV40 promoter	more potent than the SV40 promoter activity in some cases	
p124: c-erbB-2 genomic region −86/+38, SEQ ID NO: 10 (nucleic acid, listed as Homo sapiens, expressed or natural sequence) DNA: CGCGCTTGCTCCCAATCACAGGAGAAGGAGGAGGTGGAGGAGGAGGGCTGCTTGAGGAAGTATAAGAATGAAGTTGTGAAGCTGAGATTCCCCTCCATTGGGACCGGAGAAACCAGGGGAGCCC		lower than the SV40 promoter		transcription activity compared with other c-erbB-2 promoter fragments [5]: marked low compared with the p251 promoter
MK1.0: 1.0 kb of the human midkine genomic gene, base sequence SEQ ID NO: 2 (nucleic acid, listed as Homo sapiens) DNA: GGCCGCGCTCGTCGGGGCCGGGCGGGGGCCGATCCCTCCGGCTTCCCTTCCCGCGGAGAACAACAATGAAAGTGAAAGAGGGGTGGGGCGGGGGCGAGCCCGGGTTCTGTGGCCCATTTGCCCTGTGGCCTTGAGCAAGCCCCTCCCCCAGGCCTCGGGGGCTCTCCCGGTTTGGGGGAACCGGGCGAGGCAATGCCACAGGCCCAGGGTTAGAGGGGGTGGGCACTTGCAGCTGCCGATGTGGCTGGATCTGGAACTTCTCAGACGGCTCCTGTCAGCGCCAAGTTTCACCAAATCCAGGCCTGCGGGCTCCTCCCCCAGGACCCCCACTCGCAGTCCCTCAAGCCTGTGCTCCCGGAAAGGCACTGGGCGACCGCACCCGTGGCTTTCTCTGGGCGACCGGGTCCCAGACTCCCCCCAGCACAGCAGAGCGCTTCCCTGCCCACCCGCGGAAACCGCCCCAGGTGGCCGCGCCCCCTCCCCAGCAGCCAGCAGGGCGCCAGGGCTGAGCCGGCCGTGGAGGGGAGCGGGTCCCGGGGGTTATACAGGCGCCGGGCGTCCGCGGCAGGCAAGAGAAGCTGAGGCCTGAGAACGGCCCGGGCCTTGGCGTACGGCAGGGGACGACCTGGGATGGGGGCAGCGGGCGGCGGCGCAGGGAGTGGGCCGGGGCCGGTGTGCGCGGGCGGGACGGGGCCGGGGTCGGGAGACCACCGCTCGGAAGATGGGGCCGGGAGAGGCCGCCGTCGCAGCGCAGAGGGCACCGGCGGGGAGACGCGAGGACGCGGGGCCGGGAACACGGACGCCGGAGTAGAAGCGCGGGGGGGGCGGGCTGGAGCGGGGGCGGGGACGCCGGGGTCGGGGGCGGTGCGGGTTTGAGGGGAGGGGGCGGGGCGGGTCCTTCCCTGGGGGGGTGGGGAGAGGGGGCGGGGGCCCATGTGACCGGCTCAGACCGGTTCTGGAGACAAAAGGGGCCGCGGCGGCCGGAGCGGGACGGGCCCGGCGCGGGAGGGAGCGAAGCAGCGCGGGCAGCGAGCGAGTGAG	weak			
p533: c-erbB-2 genomic region from −435 to +38, SEQ ID NO: 7; conventionally used promoter (nucleic acid, listed as Homo sapiens) DNA: GGGGGTCCTGGAAGCCACAAGGTAAACACAACACATCCCCCTCCTTGACTATCAATTTTACTAGAGGATGTGGTGGGAAAACCATTATTTGATATTAAAACAAATAGGCTTGGGATGGAGTAGGATGCAAGCTCCCCAGGAAAGTTTAAGATAAAACCTGAGACTTAAAAGGGTGTTAAGAGTGGCAGCCTAGGGAATTTATCCCGGACTCCGGGGGAGGGGGCAGAGTCACCAGCCTCTGCATTTAGGGATTCTCCGAGGAAAAGTGTGAGAACGGCTGCAGGCAACCCAGGCGTCCCGGCGCTAGGAGGGACGACCCAGGCCTGCGCGAAGAGAGGGAGAAAGTGAAGCTGGGAGTTGCCGACTCCCAGACTTCGTTGGAATGCAGTTGGAGGGGGCGAGCTGGGAGCGCGCTTGCTCCCAATCACAGGAGAAGGAGGAGGTGGAGGAGGAGGGCTGCTTGAGGAAGTATAAGAATGAAGTTGTGAAGCTGAGATTCCCCTCCATTGGGACCGGAGAAACCAGGGGAGCCC			more potent than the SV40 promoter activity in some cases	
